This note sets out measurements from US20130202618A1 (PROGENICS PHARMACEUTICALS, published 2013).

What all share (test): cell-based or functional assay
Assay [1] addresses T1, Clostridium difficile toxin B (strain VPI 10463) (Clostridium difficile strain VPI 10463, UniProt P18177 2-2366).
In assay [2] the target is T1, Clostridium difficile toxin B (strain …). This is another data set of the same source.
The target of assay [3] is T2, C. difficile toxin A from strain CCL678 (ribotype 027, BI/NAP1/027) (Clostridium difficile strain CCL678).
Assay [4] deals with C. difficile toxin A from strain Pitt 07 (ribotype 078) (Clostridium difficile strain Pitt 07).
In assay [5] the target is T3, C. difficile toxin A from strain Montreal 7.1 (ribotype 027, BI/NAP1/027) (Clostridium difficile strain Montreal …).
Assay [6] concerns the target C. difficile toxin A from strain UVA30/TL42 (ribotype 014) (Clostridium difficile strain UVA30/TL42).
Assay [7] has as its target T4, C. difficile toxin A from strain HMC553 (ribotype 027, BI/NAP1/027) (Clostridium difficile strain HMC553).
Assay [8] has as its target C. difficile toxin A from strain MH5 (ribotype 001) (Clostridium difficile strain MH5).
The target of assay [9] is C. difficile toxin A from strain Pitt 2 (ribotype 001) (Clostridium difficile strain Pitt 2).
Assay [10] has as its target T5, C. difficile toxin A from strain Montreal 5 (ribotype 027, BI/NAP1/027) (Clostridium difficile strain Montreal 5).
Assay [11] concerns the target C. difficile toxin A from strain UVA17 (ribotype 002) (Clostridium difficile strain UVA17).
Assay [12] deals with C. difficile toxin A from strain CCL14137 (ribotype 001) (Clostridium difficile strain CCL14137).
For assay [13], the target named is C. difficile toxin A from strain 545 (ATCC 43596, ribotype 012) (Clostridium difficile strain 545 (ATCC …)).
Assay [14] has as its target C. difficile toxin A from strain 630 (ATCC BAA-1382, ribotype 012) (Clostridium difficile strain 630).
Assay [15] concerns the target T6, C. difficile toxin A from strain Pitt 45 (ribotype 027, BI/NAP1/027) (Clostridium difficile strain Pitt 45).
Assay [16] deals with T7, C. difficile toxin A from strain CD196 (ribotype 027, BI/NAP1/027) (Clostridium difficile strain CD196).
For assay [17], the target named is Clostridium difficile toxin A (strain VPI 10463) (Clostridium difficile strain VPI 10463, UniProt P16154 1-2710).
Clostridium difficile toxin A (strain VPI 10463), sequence (P16154 whole entry): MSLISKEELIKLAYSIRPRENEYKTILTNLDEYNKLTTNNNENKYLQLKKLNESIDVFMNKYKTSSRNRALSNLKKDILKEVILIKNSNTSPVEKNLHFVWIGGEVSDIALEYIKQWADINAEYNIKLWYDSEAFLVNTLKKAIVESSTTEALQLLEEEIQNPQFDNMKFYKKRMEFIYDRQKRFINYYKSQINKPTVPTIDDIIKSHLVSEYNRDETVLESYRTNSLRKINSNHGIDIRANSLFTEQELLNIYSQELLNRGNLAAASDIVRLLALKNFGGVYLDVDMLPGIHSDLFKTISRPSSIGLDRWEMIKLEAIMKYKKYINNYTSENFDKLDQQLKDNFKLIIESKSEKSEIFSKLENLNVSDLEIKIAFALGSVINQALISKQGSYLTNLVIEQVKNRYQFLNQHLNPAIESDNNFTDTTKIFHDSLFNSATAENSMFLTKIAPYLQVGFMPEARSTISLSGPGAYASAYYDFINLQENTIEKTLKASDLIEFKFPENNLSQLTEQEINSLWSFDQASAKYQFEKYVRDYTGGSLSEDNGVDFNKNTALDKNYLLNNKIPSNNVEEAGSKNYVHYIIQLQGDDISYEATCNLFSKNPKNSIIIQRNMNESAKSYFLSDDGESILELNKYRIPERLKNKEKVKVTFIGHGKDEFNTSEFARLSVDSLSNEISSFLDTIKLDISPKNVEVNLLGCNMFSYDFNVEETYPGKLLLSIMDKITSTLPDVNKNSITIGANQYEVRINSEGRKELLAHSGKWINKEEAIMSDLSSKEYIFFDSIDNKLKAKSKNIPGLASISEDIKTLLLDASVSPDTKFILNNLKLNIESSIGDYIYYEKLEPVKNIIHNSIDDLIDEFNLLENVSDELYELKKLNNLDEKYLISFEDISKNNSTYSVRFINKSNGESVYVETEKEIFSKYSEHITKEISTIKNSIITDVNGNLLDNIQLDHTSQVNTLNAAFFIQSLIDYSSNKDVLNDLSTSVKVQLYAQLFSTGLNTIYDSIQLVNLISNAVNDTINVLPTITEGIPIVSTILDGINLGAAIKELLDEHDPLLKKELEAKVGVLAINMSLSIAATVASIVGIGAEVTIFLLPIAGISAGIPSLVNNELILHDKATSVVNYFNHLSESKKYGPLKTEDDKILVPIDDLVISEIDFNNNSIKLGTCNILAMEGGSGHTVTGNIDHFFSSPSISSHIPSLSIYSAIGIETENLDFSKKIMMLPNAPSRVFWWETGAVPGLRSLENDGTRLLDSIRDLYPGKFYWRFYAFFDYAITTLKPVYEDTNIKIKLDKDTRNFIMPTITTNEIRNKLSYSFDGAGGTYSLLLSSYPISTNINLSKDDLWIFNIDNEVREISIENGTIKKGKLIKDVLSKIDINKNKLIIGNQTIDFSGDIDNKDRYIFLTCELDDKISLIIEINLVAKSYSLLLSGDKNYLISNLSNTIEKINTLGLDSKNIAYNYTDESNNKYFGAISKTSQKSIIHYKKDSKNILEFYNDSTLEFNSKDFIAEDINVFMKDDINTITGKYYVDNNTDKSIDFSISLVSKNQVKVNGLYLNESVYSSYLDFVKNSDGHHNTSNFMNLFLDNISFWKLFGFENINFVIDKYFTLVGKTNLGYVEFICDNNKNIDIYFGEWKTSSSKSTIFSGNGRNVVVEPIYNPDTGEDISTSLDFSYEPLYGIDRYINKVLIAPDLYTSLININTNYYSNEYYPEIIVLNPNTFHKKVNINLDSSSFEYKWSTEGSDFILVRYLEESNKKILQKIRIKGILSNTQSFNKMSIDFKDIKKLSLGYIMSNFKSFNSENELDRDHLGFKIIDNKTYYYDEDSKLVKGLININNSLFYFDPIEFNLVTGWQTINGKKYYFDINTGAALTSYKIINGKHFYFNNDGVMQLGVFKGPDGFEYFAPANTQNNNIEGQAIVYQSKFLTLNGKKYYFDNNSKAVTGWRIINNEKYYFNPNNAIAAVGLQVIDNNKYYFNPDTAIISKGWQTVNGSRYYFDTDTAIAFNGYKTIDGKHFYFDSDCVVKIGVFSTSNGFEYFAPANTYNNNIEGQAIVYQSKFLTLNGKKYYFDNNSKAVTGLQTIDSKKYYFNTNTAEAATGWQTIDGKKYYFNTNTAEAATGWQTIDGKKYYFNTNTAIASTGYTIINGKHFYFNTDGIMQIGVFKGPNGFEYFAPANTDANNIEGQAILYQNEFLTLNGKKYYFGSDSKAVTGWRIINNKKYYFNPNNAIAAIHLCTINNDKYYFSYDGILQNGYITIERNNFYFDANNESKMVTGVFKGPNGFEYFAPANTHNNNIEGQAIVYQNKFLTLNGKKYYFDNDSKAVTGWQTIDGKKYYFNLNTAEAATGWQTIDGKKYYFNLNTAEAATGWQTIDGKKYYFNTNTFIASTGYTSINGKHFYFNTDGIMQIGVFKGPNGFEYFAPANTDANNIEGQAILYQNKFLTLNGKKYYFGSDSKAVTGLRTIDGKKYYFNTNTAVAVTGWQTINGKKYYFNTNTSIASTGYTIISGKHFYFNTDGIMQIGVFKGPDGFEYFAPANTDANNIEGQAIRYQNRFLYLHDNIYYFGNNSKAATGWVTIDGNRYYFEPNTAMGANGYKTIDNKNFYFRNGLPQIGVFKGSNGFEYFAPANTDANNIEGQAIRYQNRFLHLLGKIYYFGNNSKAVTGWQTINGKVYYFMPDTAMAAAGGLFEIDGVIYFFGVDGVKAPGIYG
Assay [18] concerns the target T2, C. difficile toxin A from strain CCL678 …. The source holds these as a separate data set.
Assay [19] concerns the target T3, C. difficile toxin A from strain …. This is another data set of the same source.
The target in assay [20] is T4, C. difficile toxin A from strain HMC553 …. This is another data set of the same source.
Assay [21] has as its target T5, C. difficile toxin A from strain …. This is another data set of the same source.
The target of assay [22] is T6, C. difficile toxin A from strain Pitt …. This is another data set of the same source.
For assay [23], the target named is T7, C. difficile toxin A from strain CD196 …. This is another data set of the same source.

T1 sequence (P18177 2-2366): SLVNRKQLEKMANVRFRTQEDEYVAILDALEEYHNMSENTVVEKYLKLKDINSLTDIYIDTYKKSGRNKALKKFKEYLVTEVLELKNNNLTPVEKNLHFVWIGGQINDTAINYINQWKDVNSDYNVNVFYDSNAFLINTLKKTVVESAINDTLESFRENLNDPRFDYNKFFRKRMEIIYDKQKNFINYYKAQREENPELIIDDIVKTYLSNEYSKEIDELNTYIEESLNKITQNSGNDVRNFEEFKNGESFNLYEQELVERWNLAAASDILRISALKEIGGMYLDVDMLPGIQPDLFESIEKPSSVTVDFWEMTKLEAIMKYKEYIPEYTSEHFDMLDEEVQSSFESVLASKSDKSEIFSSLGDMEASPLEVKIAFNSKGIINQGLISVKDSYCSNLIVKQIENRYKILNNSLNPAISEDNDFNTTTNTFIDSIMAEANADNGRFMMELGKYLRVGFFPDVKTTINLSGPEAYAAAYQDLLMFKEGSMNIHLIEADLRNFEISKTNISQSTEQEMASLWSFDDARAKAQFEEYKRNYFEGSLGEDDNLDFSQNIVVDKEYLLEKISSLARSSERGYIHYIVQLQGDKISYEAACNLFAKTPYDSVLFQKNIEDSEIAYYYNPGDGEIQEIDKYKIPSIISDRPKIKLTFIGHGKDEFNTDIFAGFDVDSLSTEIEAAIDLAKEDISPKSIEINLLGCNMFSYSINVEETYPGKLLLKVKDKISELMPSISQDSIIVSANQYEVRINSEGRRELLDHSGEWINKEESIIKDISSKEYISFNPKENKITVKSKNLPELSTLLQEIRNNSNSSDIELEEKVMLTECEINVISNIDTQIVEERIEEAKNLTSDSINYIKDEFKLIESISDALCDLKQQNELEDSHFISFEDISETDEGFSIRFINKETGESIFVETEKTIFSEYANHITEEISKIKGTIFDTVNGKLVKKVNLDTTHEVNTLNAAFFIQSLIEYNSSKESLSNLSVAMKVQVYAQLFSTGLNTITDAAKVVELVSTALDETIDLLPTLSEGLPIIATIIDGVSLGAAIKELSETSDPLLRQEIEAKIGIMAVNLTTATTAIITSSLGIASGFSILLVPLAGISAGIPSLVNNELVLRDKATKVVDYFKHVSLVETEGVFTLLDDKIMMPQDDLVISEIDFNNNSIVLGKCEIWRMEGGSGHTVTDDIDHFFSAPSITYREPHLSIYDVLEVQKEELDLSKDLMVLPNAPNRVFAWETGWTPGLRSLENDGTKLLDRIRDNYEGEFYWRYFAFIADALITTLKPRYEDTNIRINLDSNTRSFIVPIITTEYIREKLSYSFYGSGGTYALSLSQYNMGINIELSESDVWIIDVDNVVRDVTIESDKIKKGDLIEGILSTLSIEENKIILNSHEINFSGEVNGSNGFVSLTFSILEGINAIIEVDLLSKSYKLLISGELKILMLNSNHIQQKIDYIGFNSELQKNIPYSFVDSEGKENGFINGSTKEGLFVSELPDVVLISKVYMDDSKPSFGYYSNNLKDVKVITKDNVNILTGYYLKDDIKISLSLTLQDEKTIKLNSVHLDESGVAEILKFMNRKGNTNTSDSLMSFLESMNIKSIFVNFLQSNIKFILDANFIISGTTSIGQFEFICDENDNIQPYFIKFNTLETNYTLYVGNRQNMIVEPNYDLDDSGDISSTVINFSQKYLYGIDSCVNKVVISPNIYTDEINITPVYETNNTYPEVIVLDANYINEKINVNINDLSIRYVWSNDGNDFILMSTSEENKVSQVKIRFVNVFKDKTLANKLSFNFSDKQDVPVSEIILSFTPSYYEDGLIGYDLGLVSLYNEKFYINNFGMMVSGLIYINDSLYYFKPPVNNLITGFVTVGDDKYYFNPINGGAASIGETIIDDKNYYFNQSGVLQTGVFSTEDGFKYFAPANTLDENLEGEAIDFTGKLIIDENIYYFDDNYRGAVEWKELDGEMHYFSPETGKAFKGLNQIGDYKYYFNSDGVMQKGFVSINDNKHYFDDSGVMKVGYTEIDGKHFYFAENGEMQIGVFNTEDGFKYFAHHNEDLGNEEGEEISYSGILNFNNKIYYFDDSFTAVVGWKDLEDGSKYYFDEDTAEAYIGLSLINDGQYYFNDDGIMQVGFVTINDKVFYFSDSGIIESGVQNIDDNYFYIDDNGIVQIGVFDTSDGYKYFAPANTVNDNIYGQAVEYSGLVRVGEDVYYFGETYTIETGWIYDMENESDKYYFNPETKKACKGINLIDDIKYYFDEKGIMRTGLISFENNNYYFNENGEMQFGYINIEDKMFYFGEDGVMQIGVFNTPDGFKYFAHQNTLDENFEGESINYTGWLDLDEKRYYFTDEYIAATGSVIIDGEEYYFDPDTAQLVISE

B1: humanized anti-C. difficile toxin B monoclonal antibody PA-41 (antibody, V domains shown)
VH: QVQLVQSGAEVKKPGASVKVSCKASGYPFTNYFMHWVRQAPGQRLEWIGRINPYNGATSYSLNFRDKATITLDKSASTAYMELSSLRSEDTAVYYCARSTITSPLLDFWGQGTLVTVSS
VL: EIVLTQSPATLSLSPGERATLSCRASQSVGTSIHWYQQKPGQAPRLLIKFASESISGIPARFSGSGSGTDFTLTISSLEPEDFAVYYCQQSNKWPFTFGQGTKLEIKR
B1: the “EC50, neutralization of supernatant cytotoxicity on CHO-K1 cells” value in [1] amounted to 0.0077 nM. In assay [2], the “EC50, neutralization of toxin B cytotoxicity on CHO-K1 cells (toxin B 2 pg/mL)” value was 6000 nM and the “EC50, neutralization on IMR-90 cells” value was 5000 nM.

B2: humanized anti-C. difficile toxin A monoclonal antibody PA-50 (antibody, V domains shown)
VH: QVQLVQSGAEVKKPGASVKVSCKASGYTFTDYNMDWVRQAPGQRLEWIGDINPKYDIIGHNPKFMGKATITVDKSASTAYMELSSLRSEDTAVYYCARSDRGWYFDVWGQGTLVTVSS
VL: EIVLTQSPATLSLSPGERATLSCRASSSVNYMNWYQQKPGQAPRPRIYATSNLASGVPARFSGSGSGTDYTLTISSLEPEDFAVYYCQQWSSRTFGGGTKLEIKR
In the case of B2, the “EC50, neutralization of supernatant cytotoxicity on T-84 cells” value (“EC50, neutralization … on T-84 cells” for short) in assay [3] worked out at 0.029 nM; in [4], 0.032 nM; in [5] it was 0.031 nM; in assay [6], 0.051 nM; in [7] it was 0.029 nM; in assay [8] it was 0.127 nM. The “EC50, neutralization … on T-84 cells” value in assay [9] worked out at 0.027 nM; in [10], 0.029 nM; in assay [11] it was 0.026 nM; in assay [12], 0.039 nM; in assay [13] it was 0.038 nM; in assay [14], 0.054 nM. Besides, the “EC50, neutralization … on T-84 cells” value in [15] came to 0.043 nM; in [16], 0.061 nM; in assay [17], 0.02 nM. The “neutralization activity on T-84 cells relative to comparator mAb CDA-1” value in assay [18], in assay [19], in assay [20], in assay [21], in [22] and in [23] was above 100 fold each time.
